For test [1], the target named is human GLP-1 receptor (hGLP-1R) (human, UniProt P43220 24-463). Nature of the test: cell-based or functional assay.
Test [2] concerns the target human glucagon receptor (hGCGR) (human, UniProt P47871 26-477). Nature of the test: cell-based or functional assay.

Starred links: 1 amine or outer side, 2 acyl side, 3 side chain; linkers in the order of their positions; H or OH if unused. Non-standard residues stand in square brackets, D forms with d. Groups on a side chain read outwards from the residue. No end group written: not given here. *: point of attachment. C20 diacid = O=C(O)CCCCCCCCCCCCCCCCCCC(=O)*; C18 diacid = O=C(O)CCCCCCCCCCCCCCCCC(=O)*; γGlu = O=C(O)[C@H](CCC(=O)[*:2])N[*:1]; αMeF = C[C@](N)(Cc1ccccc1)C(=O)O; AEEA = NCCOCCOCC(=O)O; Aib = CC(C)(N)C(=O)O

Chain of human glucagon receptor (hGCGR) (P47871 26-477): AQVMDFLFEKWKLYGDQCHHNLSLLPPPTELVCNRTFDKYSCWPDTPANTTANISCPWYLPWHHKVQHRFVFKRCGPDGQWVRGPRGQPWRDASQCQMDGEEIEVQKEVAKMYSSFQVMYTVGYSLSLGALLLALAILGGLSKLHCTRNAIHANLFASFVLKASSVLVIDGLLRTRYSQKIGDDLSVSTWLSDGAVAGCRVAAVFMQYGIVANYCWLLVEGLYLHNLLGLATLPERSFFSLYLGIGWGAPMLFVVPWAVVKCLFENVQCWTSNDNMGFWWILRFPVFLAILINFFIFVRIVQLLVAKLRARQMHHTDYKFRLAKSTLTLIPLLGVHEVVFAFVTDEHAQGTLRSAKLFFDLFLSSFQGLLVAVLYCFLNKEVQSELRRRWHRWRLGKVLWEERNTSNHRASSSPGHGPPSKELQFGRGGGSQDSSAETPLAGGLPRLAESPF

B1: Peptide 421 (peptide)
peptide: H[Aib]QGTFTSDVSK[αMeF]LDRK([AEEA-AEEA-γGlu-C18 diacid])RAQDFVRWLL[Aib]TE-OH
modifications: N-terminus assumed
SMILES: CC(C)C[C@H](NC(=O)[C@H](Cc1c[nH]c2ccccc12)NC(=O)[C@H](CCCNC(=N)N)NC(=O)[C@@H](NC(=O)[C@H](Cc1ccccc1)NC(=O)[C@H](CC(=O)O)NC(=O)[C@H](CCC(N)=O)NC(=O)[C@H](C)NC(=O)[C@H](CCCNC(=N)N)NC(=O)[C@H](CCCCNC(=O)COCCOCCNC(=O)COCCOCCNC(=O)CC[C@H](NC(=O)CCCCCCCCCCCCCCCCC(=O)O)C(=O)O)NC(=O)[C@H](CCCNC(=N)N)NC(=O)[C@H](CC(=O)O)NC(=O)[C@H](CC(C)C)NC(=O)[C@](C)(Cc1ccccc1)NC(=O)[C@H](CCCCN)NC(=O)[C@H](CO)NC(=O)[C@@H](NC(=O)[C@H](CC(=O)O)NC(=O)[C@H](CO)NC(=O)[C@@H](NC(=O)[C@H](Cc1ccccc1)NC(=O)[C@@H](NC(=O)CNC(=O)[C@H](CCC(N)=O)NC(=O)C(C)(C)NC(=O)[C@@H](N)Cc1c[nH]cn1)[C@@H](C)O)[C@@H](C)O)C(C)C)C(C)C)C(=O)N[C@@H](CC(C)C)C(=O)NC(C)(C)C(=O)N[C@H](C(=O)N[C@@H](CCC(=O)O)C(=O)O)[C@@H](C)O
For B1, the “hGLP-1R EC50 (pM)” value in test [1] was 87.3 pM. Further, the “hGluc-R EC50 (pM)” value in test [2] turned out to be 180 pM.

B2: Peptide 418 (peptide)
peptide: H[Aib]QGTFTSDVSK[αMeF]LDTK([AEEA-AEEA-γGlu-γGlu-C20 diacid])RAQDFVAWLEA[Aib]G-OH
modifications: N-terminus assumed
SMILES: CC(C)C[C@H](NC(=O)[C@H](Cc1c[nH]c2ccccc12)NC(=O)[C@H](C)NC(=O)[C@@H](NC(=O)[C@H](Cc1ccccc1)NC(=O)[C@H](CC(=O)O)NC(=O)[C@H](CCC(N)=O)NC(=O)[C@H](C)NC(=O)[C@H](CCCNC(=N)N)NC(=O)[C@H](CCCCNC(=O)COCCOCCNC(=O)COCCOCCNC(=O)CC[C@H](NC(=O)CC[C@H](NC(=O)CCCCCCCCCCCCCCCCCCC(=O)O)C(=O)O)C(=O)O)NC(=O)[C@@H](NC(=O)[C@H](CC(=O)O)NC(=O)[C@H](CC(C)C)NC(=O)[C@](C)(Cc1ccccc1)NC(=O)[C@H](CCCCN)NC(=O)[C@H](CO)NC(=O)[C@@H](NC(=O)[C@H](CC(=O)O)NC(=O)[C@H](CO)NC(=O)[C@@H](NC(=O)[C@H](Cc1ccccc1)NC(=O)[C@@H](NC(=O)CNC(=O)[C@H](CCC(N)=O)NC(=O)C(C)(C)NC(=O)[C@@H](N)Cc1c[nH]cn1)[C@@H](C)O)[C@@H](C)O)C(C)C)[C@@H](C)O)C(C)C)C(=O)N[C@@H](CCC(=O)O)C(=O)N[C@@H](C)C(=O)NC(C)(C)C(=O)NCC(=O)O
Turning to B2, the “hGLP-1R EC50 (pM)” value in test [1] stood at 88.1 pM. Moreover, the “hGluc-R EC50 (pM)” value in test [2] stood at 222 pM.

B3: Peptide 419 (peptide)
peptide: H[Aib]QGTFTSDVSK[αMeF]LDTK([AEEA-AEEA-γGlu-C18 diacid])RAQDFVRWLE[Aib]E-OH
modifications: N-terminus assumed
SMILES: CC(C)C[C@H](NC(=O)[C@H](Cc1c[nH]c2ccccc12)NC(=O)[C@H](CCCNC(=N)N)NC(=O)[C@@H](NC(=O)[C@H](Cc1ccccc1)NC(=O)[C@H](CC(=O)O)NC(=O)[C@H](CCC(N)=O)NC(=O)[C@H](C)NC(=O)[C@H](CCCNC(=N)N)NC(=O)[C@H](CCCCNC(=O)COCCOCCNC(=O)COCCOCCNC(=O)CC[C@H](NC(=O)CCCCCCCCCCCCCCCCC(=O)O)C(=O)O)NC(=O)[C@@H](NC(=O)[C@H](CC(=O)O)NC(=O)[C@H](CC(C)C)NC(=O)[C@](C)(Cc1ccccc1)NC(=O)[C@H](CCCCN)NC(=O)[C@H](CO)NC(=O)[C@@H](NC(=O)[C@H](CC(=O)O)NC(=O)[C@H](CO)NC(=O)[C@@H](NC(=O)[C@H](Cc1ccccc1)NC(=O)[C@@H](NC(=O)CNC(=O)[C@H](CCC(N)=O)NC(=O)C(C)(C)NC(=O)[C@@H](N)Cc1c[nH]cn1)[C@@H](C)O)[C@@H](C)O)C(C)C)[C@@H](C)O)C(C)C)C(=O)N[C@@H](CCC(=O)O)C(=O)NC(C)(C)C(=O)N[C@@H](CCC(=O)O)C(=O)O
Regarding B3, the “hGLP-1R EC50 (pM)” value in test [1] was found to be 96.9 pM. In addition, the “hGluc-R EC50 (pM)” value in test [2] was 264 pM.

B4: Peptide 417 (peptide)
peptide: H[Aib]QGTFTSDVSK[αMeF]LDTK([AEEA-AEEA-γGlu-γGlu-C18 diacid])RAQDFVAWLEA[Aib]G-OH
modifications: N-terminus assumed
SMILES: CC(C)C[C@H](NC(=O)[C@H](Cc1c[nH]c2ccccc12)NC(=O)[C@H](C)NC(=O)[C@@H](NC(=O)[C@H](Cc1ccccc1)NC(=O)[C@H](CC(=O)O)NC(=O)[C@H](CCC(N)=O)NC(=O)[C@H](C)NC(=O)[C@H](CCCNC(=N)N)NC(=O)[C@H](CCCCNC(=O)COCCOCCNC(=O)COCCOCCNC(=O)CC[C@H](NC(=O)CC[C@H](NC(=O)CCCCCCCCCCCCCCCCC(=O)O)C(=O)O)C(=O)O)NC(=O)[C@@H](NC(=O)[C@H](CC(=O)O)NC(=O)[C@H](CC(C)C)NC(=O)[C@](C)(Cc1ccccc1)NC(=O)[C@H](CCCCN)NC(=O)[C@H](CO)NC(=O)[C@@H](NC(=O)[C@H](CC(=O)O)NC(=O)[C@H](CO)NC(=O)[C@@H](NC(=O)[C@H](Cc1ccccc1)NC(=O)[C@@H](NC(=O)CNC(=O)[C@H](CCC(N)=O)NC(=O)C(C)(C)NC(=O)[C@@H](N)Cc1c[nH]cn1)[C@@H](C)O)[C@@H](C)O)C(C)C)[C@@H](C)O)C(C)C)C(=O)N[C@@H](CCC(=O)O)C(=O)N[C@@H](C)C(=O)NC(C)(C)C(=O)NCC(=O)O
Consider B4, for which the “hGLP-1R EC50 (pM)” value in test [1] turned out to be 33.9 pM. The “hGluc-R EC50 (pM)” value in test [2] came out at 16.4 pM.

B5: Peptide 420 (peptide)
peptide: H[Aib]QGTFTSDVSK[αMeF]LDKK([AEEA-AEEA-γGlu-C18 diacid])RAQDFVRWLL[Aib]E-NH2
modifications: N-terminus assumed
SMILES: CC(C)C[C@H](NC(=O)[C@H](Cc1c[nH]c2ccccc12)NC(=O)[C@H](CCCNC(=N)N)NC(=O)[C@@H](NC(=O)[C@H](Cc1ccccc1)NC(=O)[C@H](CC(=O)O)NC(=O)[C@H](CCC(N)=O)NC(=O)[C@H](C)NC(=O)[C@H](CCCNC(=N)N)NC(=O)[C@H](CCCCNC(=O)COCCOCCNC(=O)COCCOCCNC(=O)CC[C@H](NC(=O)CCCCCCCCCCCCCCCCC(=O)O)C(=O)O)NC(=O)[C@H](CCCCN)NC(=O)[C@H](CC(=O)O)NC(=O)[C@H](CC(C)C)NC(=O)[C@](C)(Cc1ccccc1)NC(=O)[C@H](CCCCN)NC(=O)[C@H](CO)NC(=O)[C@@H](NC(=O)[C@H](CC(=O)O)NC(=O)[C@H](CO)NC(=O)[C@@H](NC(=O)[C@H](Cc1ccccc1)NC(=O)[C@@H](NC(=O)CNC(=O)[C@H](CCC(N)=O)NC(=O)C(C)(C)NC(=O)[C@@H](N)Cc1c[nH]cn1)[C@@H](C)O)[C@@H](C)O)C(C)C)C(C)C)C(=O)N[C@@H](CC(C)C)C(=O)NC(C)(C)C(=O)N[C@@H](CCC(=O)O)C(N)=O
Turning to B5, the “hGLP-1R EC50 (pM)” value in test [1] is 23.1 pM. The “hGluc-R EC50 (pM)” value in test [2] was found to be 36.9 pM.

B6: Peptide 416 (peptide)
peptide: H[Aib]QGTFTSDVSK[αMeF]LESK([AEEA-AEEA-γGlu-C20 diacid])RAQDFVRWLEA[Aib]G-OH
modifications: N-terminus assumed
SMILES: CC(C)C[C@H](NC(=O)[C@H](Cc1c[nH]c2ccccc12)NC(=O)[C@H](CCCNC(=N)N)NC(=O)[C@@H](NC(=O)[C@H](Cc1ccccc1)NC(=O)[C@H](CC(=O)O)NC(=O)[C@H](CCC(N)=O)NC(=O)[C@H](C)NC(=O)[C@H](CCCNC(=N)N)NC(=O)[C@H](CCCCNC(=O)COCCOCCNC(=O)COCCOCCNC(=O)CC[C@H](NC(=O)CCCCCCCCCCCCCCCCCCC(=O)O)C(=O)O)NC(=O)[C@H](CO)NC(=O)[C@H](CCC(=O)O)NC(=O)[C@H](CC(C)C)NC(=O)[C@](C)(Cc1ccccc1)NC(=O)[C@H](CCCCN)NC(=O)[C@H](CO)NC(=O)[C@@H](NC(=O)[C@H](CC(=O)O)NC(=O)[C@H](CO)NC(=O)[C@@H](NC(=O)[C@H](Cc1ccccc1)NC(=O)[C@@H](NC(=O)CNC(=O)[C@H](CCC(N)=O)NC(=O)C(C)(C)NC(=O)[C@@H](N)Cc1c[nH]cn1)[C@@H](C)O)[C@@H](C)O)C(C)C)C(C)C)C(=O)N[C@@H](CCC(=O)O)C(=O)N[C@@H](C)C(=O)NC(C)(C)C(=O)NCC(=O)O
Regarding B6, the “hGLP-1R EC50 (pM)” value in test [1] worked out at 67.7 pM. Moreover, the “hGluc-R EC50 (pM)” value in test [2] is 581 pM.

B7: Peptide 415 (peptide)
peptide: H[Aib]QGTFTSDVSK[αMeF]LESK([AEEA-AEEA-γGlu-C18 diacid])RAQDFVRWLEA[Aib]G-OH
modifications: N-terminus assumed
SMILES: CC(C)C[C@H](NC(=O)[C@H](Cc1c[nH]c2ccccc12)NC(=O)[C@H](CCCNC(=N)N)NC(=O)[C@@H](NC(=O)[C@H](Cc1ccccc1)NC(=O)[C@H](CC(=O)O)NC(=O)[C@H](CCC(N)=O)NC(=O)[C@H](C)NC(=O)[C@H](CCCNC(=N)N)NC(=O)[C@H](CCCCNC(=O)COCCOCCNC(=O)COCCOCCNC(=O)CC[C@H](NC(=O)CCCCCCCCCCCCCCCCC(=O)O)C(=O)O)NC(=O)[C@H](CO)NC(=O)[C@H](CCC(=O)O)NC(=O)[C@H](CC(C)C)NC(=O)[C@](C)(Cc1ccccc1)NC(=O)[C@H](CCCCN)NC(=O)[C@H](CO)NC(=O)[C@@H](NC(=O)[C@H](CC(=O)O)NC(=O)[C@H](CO)NC(=O)[C@@H](NC(=O)[C@H](Cc1ccccc1)NC(=O)[C@@H](NC(=O)CNC(=O)[C@H](CCC(N)=O)NC(=O)C(C)(C)NC(=O)[C@@H](N)Cc1c[nH]cn1)[C@@H](C)O)[C@@H](C)O)C(C)C)C(C)C)C(=O)N[C@@H](CCC(=O)O)C(=O)N[C@@H](C)C(=O)NC(C)(C)C(=O)NCC(=O)O
As to B7, the “hGLP-1R EC50 (pM)” value in test [1] was 14.7 pM. Also, the “hGluc-R EC50 (pM)” value in test [2] amounted to 301 pM.

For the origin of these results see patent US20230357348A1 (AstraZeneca / MedImmune, published 2023).
